Assay results as given in US20020094544A1.

Legend:
[1] = target: Human opioid receptor subtype µ (human) (UniProt P35372); assay: cell-based or functional assay
[2] = target: Human opioid receptor subtype δ2 (human) (UniProt P41143); assay: cell-based or functional assay
Chain of Human opioid receptor subtype δ2 (human) (P41143 whole entry, stated change not applied): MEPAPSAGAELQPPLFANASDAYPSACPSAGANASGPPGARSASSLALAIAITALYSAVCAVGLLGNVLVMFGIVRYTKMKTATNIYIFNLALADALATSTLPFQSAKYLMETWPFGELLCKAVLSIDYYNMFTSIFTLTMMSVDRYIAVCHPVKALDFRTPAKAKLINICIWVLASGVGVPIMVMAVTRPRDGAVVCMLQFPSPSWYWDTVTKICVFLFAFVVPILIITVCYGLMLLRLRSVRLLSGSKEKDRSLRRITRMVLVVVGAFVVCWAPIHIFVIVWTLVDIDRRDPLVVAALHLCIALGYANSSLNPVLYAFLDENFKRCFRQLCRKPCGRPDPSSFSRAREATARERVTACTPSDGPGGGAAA

Chain of Human opioid receptor subtype µ (human) (P35372 whole entry): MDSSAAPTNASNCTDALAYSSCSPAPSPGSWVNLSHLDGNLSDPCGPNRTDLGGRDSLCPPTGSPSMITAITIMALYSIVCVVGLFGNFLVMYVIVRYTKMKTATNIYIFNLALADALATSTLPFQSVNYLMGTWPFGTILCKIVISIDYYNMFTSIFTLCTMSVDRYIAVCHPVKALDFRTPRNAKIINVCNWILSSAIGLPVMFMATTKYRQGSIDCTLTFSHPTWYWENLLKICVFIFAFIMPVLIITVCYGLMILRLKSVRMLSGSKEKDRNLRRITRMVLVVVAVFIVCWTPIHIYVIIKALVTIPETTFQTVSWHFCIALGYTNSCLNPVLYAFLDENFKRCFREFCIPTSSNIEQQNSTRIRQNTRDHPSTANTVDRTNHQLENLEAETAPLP

increase in basal level fluorescence (binding of BODIPY-FL-GTPγS to receptor arrays) [1]: 2.5 fold
increase in basal level fluorescence (binding of BODIPY-FL-GTPγS to receptor arrays) [2]: 10 fold
Substance: dynorphin A (from UniProt P01213 207-223) (peptide)
